Laboratory results taken from the supplement of paper PMC7877785.
± gives the uncertainty stated by the source.

Test: self-splicing fitness, log relative to wild type (ln ratio); higher = more splicing; Tetrahymena group I intron in knt gene, E. coli kanamycin selection, DiMSum; sequences stand for … in CUCUCU…GGAGGGAAAAGUUAUCAGGCAUGCACCUGGUAGCUAGUCUUUAAACCAAUAGAUUGCAUCGGUUUAAAAGGCAAGACCGUCAAAUUGCGGGAAAGGGGUCAACAGCCGUUCAGUACCAAGUCUCAGGGGAAACUUUGAGAUGGCCUUGCAAAGGGUAUGGUAAUAAGCUGACGGACAUGGUCCUAACCACGCAGCCAAGUCCUAAGUCAACAGAUCUUCUGUUGAUAUGGAUGCAGUUCACAGACUAAAUGUCGGUCGGGGAAGAUGUAUUCUUCUCAUAAGAUAUAGUCGGACCUCUCCUUAAUGGGAGCUAGCGGAUGAAGUGAUGCAACACUGGAGCCGCUGGGAACUAAUUUGUAUGCGAAAGUAUAUUGAUUAGUUUUGGAGUACUCGUGGUCG
How it was run: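 Six replicate transformations of E. coli BL21(DE3) with a pET-22b(+) library were grown overnight at 37°C or 30°C. The library randomised all eight P1ex-region intron nucleotides, the intron lying in the knt kanamycin-resistance gene, and plates were LB agar with or without 25 μg/mL kanamycin plus 100 μg/mL carbenicillin, 50 μM IPTG and 0.2% rhamnose. Pooled colonies were amplicon-sequenced on an Illumina HiSeq 2500, and fitness is the DiMSum error-weighted combination of wild-type-normalised replicate fold changes, kanamycin versus none.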

AGAUAGCAAUAUUACGAUAU
self-splicing fitness (ln) (30 °C): -1.02 ± 0.11
self-splicing fitness (ln) (37 °C): -0.119 ± 0.14

CGUUAGCAAUAUUACGUUAC
self-splicing fitness (ln) (30 °C): -2.82 ± 0.32
self-splicing fitness (ln) (37 °C): -2.83 ± 0.43

ACUCAGCAAUAUUACGUAUC
self-splicing fitness (ln) (30 °C): -2.28 ± 0.14
self-splicing fitness (ln) (37 °C): -1.66 ± 0.14

CUUCAGCAAUAUUACGGCGU
self-splicing fitness (ln) (30 °C): -4.44 ± 0.24
self-splicing fitness (ln) (37 °C): -1.8 ± 0.17

UGACAGCAAUAUUACGUAGG
self-splicing fitness (ln) (30 °C): -1.78 ± 0.079
self-splicing fitness (ln) (37 °C): -1.31 ± 0.11

UCCCAGCAAUAUUACGUGCC
self-splicing fitness (ln) (30 °C): -4.06 ± 0.23
self-splicing fitness (ln) (37 °C): -2.32 ± 0.2

AAUCAGCAAUAUUACGAGUC
self-splicing fitness (ln) (30 °C): -2.05 ± 0.11
self-splicing fitness (ln) (37 °C): -1.21 ± 0.11

AAACAGCAAUAUUACGUAAU
self-splicing fitness (ln) (30 °C): -1.79 ± 0.051
self-splicing fitness (ln) (37 °C): -0.491 ± 0.064

CUUCAGCAAUAUUACGGAUG
self-splicing fitness (ln) (30 °C): -1.48 ± 0.069
self-splicing fitness (ln) (37 °C): -0.191 ± 0.1

AGGGAGCAAUAUUACGCAUA
self-splicing fitness (ln) (30 °C): -2.22 ± 0.2
self-splicing fitness (ln) (37 °C): -2.63 ± 0.33

GAUAAGCAAUAUUACGAGAA
self-splicing fitness (ln) (37 °C): -1.38 ± 0.38

AUUUAGCAAUAUUACGUUUA
self-splicing fitness (ln) (30 °C): -1.97 ± 0.19
self-splicing fitness (ln) (37 °C): -1.07 ± 0.21

UCACAGCAAUAUUACGGCUC
self-splicing fitness (ln) (30 °C): -2.9 ± 0.22
self-splicing fitness (ln) (37 °C): -1.87 ± 0.21

GUGCAGCAAUAUUACGCGCG
self-splicing fitness (ln) (30 °C): -2.41 ± 0.13
self-splicing fitness (ln) (37 °C): -1.98 ± 0.16

AAGUAGCAAUAUUACGUUAU
self-splicing fitness (ln) (30 °C): -1.93 ± 0.13
self-splicing fitness (ln) (37 °C): -0.642 ± 0.11

AAGGAGCAAUAUUACGGGAA
self-splicing fitness (ln) (30 °C): -2.09 ± 0.2
self-splicing fitness (ln) (37 °C): -3.29 ± 0.24

CACAAGCAAUAUUACGAGGG
self-splicing fitness (ln) (30 °C): -2.28 ± 0.12
self-splicing fitness (ln) (37 °C): -2.48 ± 0.14

GCCUAGCAAUAUUACGGGAG
self-splicing fitness (ln) (30 °C): -0.724 ± 0.094
self-splicing fitness (ln) (37 °C): -0.391 ± 0.094

GCUGAGCAAUAUUACGGUAG
self-splicing fitness (ln) (30 °C): -3.27 ± 0.24
self-splicing fitness (ln) (37 °C): -3.11 ± 0.3

ACGUAGCAAUAUUACGUUGC
self-splicing fitness (ln) (30 °C): -3.35 ± 0.24
self-splicing fitness (ln) (37 °C): -1.68 ± 0.22

UCUAAGCAAUAUUACGCGGG
self-splicing fitness (ln) (30 °C): -3.14 ± 0.2
self-splicing fitness (ln) (37 °C): -1.41 ± 0.18

UAGGAGCAAUAUUACGAAAC
self-splicing fitness (ln) (30 °C): -3.33 ± 0.42
self-splicing fitness (ln) (37 °C): -2.28 ± 0.5

UCGAAGCAAUAUUACGUUAU
self-splicing fitness (ln) (30 °C): -4.01 ± 0.28
self-splicing fitness (ln) (37 °C): -1.16 ± 0.15

UCCCAGCAAUAUUACGGGUG
self-splicing fitness (ln) (30 °C): -1.4 ± 0.06
self-splicing fitness (ln) (37 °C): -0.507 ± 0.075

CCCCAGCAAUAUUACGUUUC
self-splicing fitness (ln) (30 °C): -4.32 ± 0.28
self-splicing fitness (ln) (37 °C): -2.36 ± 0.23

UGUAAGCAAUAUUACGUUGU
self-splicing fitness (ln) (30 °C): -3.79 ± 0.21
self-splicing fitness (ln) (37 °C): -2.98 ± 0.29

GCAUAGCAAUAUUACGGGGG
self-splicing fitness (ln) (30 °C): -2.53 ± 0.23
self-splicing fitness (ln) (37 °C): -2.13 ± 0.23

AUUGAGCAAUAUUACGCGUG
self-splicing fitness (ln) (30 °C): -2.28 ± 0.16
self-splicing fitness (ln) (37 °C): -2.32 ± 0.23

UCCGAGCAAUAUUACGCAGA
self-splicing fitness (ln) (30 °C): -3.65 ± 0.43
self-splicing fitness (ln) (37 °C): -2.49 ± 0.23

CUUUAGCAAUAUUACGGAUG
self-splicing fitness (ln) (30 °C): -0.333 ± 0.067
self-splicing fitness (ln) (37 °C): 0.313 ± 0.098

UCGCAGCAAUAUUACGAUCU
self-splicing fitness (ln) (30 °C): -1.17 ± 0.21
self-splicing fitness (ln) (37 °C): -2.57 ± 0.21

UUAAAGCAAUAUUACGUAUG
self-splicing fitness (ln) (30 °C): -0.495 ± 0.068
self-splicing fitness (ln) (37 °C): -0.0669 ± 0.097

GGGUAGCAAUAUUACGUCGU
self-splicing fitness (ln) (30 °C): -0.541 ± 0.086
self-splicing fitness (ln) (37 °C): 0.73 ± 0.12

AGUGAGCAAUAUUACGUCCG
self-splicing fitness (ln) (37 °C): -0.894 ± 0.22

CCGGAGCAAUAUUACGGGUC
self-splicing fitness (ln) (30 °C): -3.5 ± 0.27
self-splicing fitness (ln) (37 °C): -2.77 ± 0.35

ACGCAGCAAUAUUACGGCAC
self-splicing fitness (ln) (30 °C): -0.763 ± 0.077
self-splicing fitness (ln) (37 °C): -0.602 ± 0.11

CCUUAGCAAUAUUACGGAGG
self-splicing fitness (ln) (30 °C): -3.99 ± 0.41
self-splicing fitness (ln) (37 °C): -3.11 ± 0.37

CACUAGCAAUAUUACGAGGG
self-splicing fitness (ln) (30 °C): -3.29 ± 0.18
self-splicing fitness (ln) (37 °C): -1.34 ± 0.15

CCCGAGCAAUAUUACGAUGC
self-splicing fitness (ln) (30 °C): -4.29 ± 0.46
self-splicing fitness (ln) (37 °C): -2.52 ± 0.38

AACGAGCAAUAUUACGAAUU
self-splicing fitness (ln) (30 °C): -2.78 ± 0.11
self-splicing fitness (ln) (37 °C): -2.16 ± 0.12

UCCAAGCAAUAUUACGUUAU
self-splicing fitness (ln) (30 °C): -2.78 ± 0.18
self-splicing fitness (ln) (37 °C): -3.5 ± 0.37

UAUGAGCAAUAUUACGUCCG
self-splicing fitness (ln) (37 °C): -2.19 ± 0.43

GCGCAGCAAUAUUACGGUAA
self-splicing fitness (ln) (30 °C): -1.55 ± 0.11
self-splicing fitness (ln) (37 °C): 0.236 ± 0.11

GAGGAGCAAUAUUACGACAG
self-splicing fitness (ln) (30 °C): -1.38 ± 0.36
self-splicing fitness (ln) (37 °C): -1.5 ± 0.39

UCGGAGCAAUAUUACGGUCC
self-splicing fitness (ln) (30 °C): -2.33 ± 0.4
self-splicing fitness (ln) (37 °C): -1.73 ± 0.49

CUGCAGCAAUAUUACGUAGG
self-splicing fitness (ln) (30 °C): -0.76 ± 0.057
self-splicing fitness (ln) (37 °C): -0.512 ± 0.07

GUAAAGCAAUAUUACGACAC
self-splicing fitness (ln) (30 °C): 0.603 ± 0.098
self-splicing fitness (ln) (37 °C): 0.696 ± 0.12

UGAGAGCAAUAUUACGAUGC
self-splicing fitness (ln) (30 °C): -2.13 ± 0.39
self-splicing fitness (ln) (37 °C): -0.477 ± 0.45

ACUGAGCAAUAUUACGGAAA
self-splicing fitness (ln) (30 °C): -2.92 ± 0.27
self-splicing fitness (ln) (37 °C): -2.61 ± 0.28

UGUAAGCAAUAUUACGCAAG
self-splicing fitness (ln) (30 °C): -2.85 ± 0.39
self-splicing fitness (ln) (37 °C): -2.66 ± 0.44

AUGGAGCAAUAUUACGUUCC
self-splicing fitness (ln) (30 °C): -2.13 ± 0.33

GAUGAGCAAUAUUACGAUGG
self-splicing fitness (ln) (30 °C): -1.57 ± 0.13
self-splicing fitness (ln) (37 °C): -2 ± 0.25

CCUUAGCAAUAUUACGCUGC
self-splicing fitness (ln) (30 °C): -2.81 ± 0.28

GCGAAGCAAUAUUACGACUA
self-splicing fitness (ln) (30 °C): 0.115 ± 0.22
self-splicing fitness (ln) (37 °C): -1.94 ± 0.2

CCGUAGCAAUAUUACGACUG
self-splicing fitness (ln) (30 °C): -0.0597 ± 0.12
self-splicing fitness (ln) (37 °C): -0.95 ± 0.15

UCUCAGCAAUAUUACGUUAA
self-splicing fitness (ln) (30 °C): -2.79 ± 0.19
self-splicing fitness (ln) (37 °C): -2.26 ± 0.17

AAUUAGCAAUAUUACGGUAC
self-splicing fitness (ln) (30 °C): -2.42 ± 0.16
self-splicing fitness (ln) (37 °C): -1.22 ± 0.2

UCAAAGCAAUAUUACGGAGG
self-splicing fitness (ln) (30 °C): -3.48 ± 0.28
self-splicing fitness (ln) (37 °C): -1.67 ± 0.21

AUCCAGCAAUAUUACGUUUA
self-splicing fitness (ln) (30 °C): -1.81 ± 0.076
self-splicing fitness (ln) (37 °C): -1.01 ± 0.081

UGCGAGCAAUAUUACGUAGG
self-splicing fitness (ln) (30 °C): -3.81 ± 0.18
self-splicing fitness (ln) (37 °C): -2.76 ± 0.21

CCGAAGCAAUAUUACGGAUA
self-splicing fitness (ln) (37 °C): -1.18 ± 0.2

GUUGAGCAAUAUUACGAGAG
self-splicing fitness (ln) (30 °C): -3.95 ± 0.4
self-splicing fitness (ln) (37 °C): -2.63 ± 0.41

GGACAGCAAUAUUACGGACA
self-splicing fitness (ln) (30 °C): -0.509 ± 0.11
self-splicing fitness (ln) (37 °C): -0.307 ± 0.11

GAGUAGCAAUAUUACGUUCU
self-splicing fitness (ln) (30 °C): -2.18 ± 0.18
self-splicing fitness (ln) (37 °C): -2.56 ± 0.21

AGAGAGCAAUAUUACGUCUG
self-splicing fitness (ln) (30 °C): -4.03 ± 0.33
self-splicing fitness (ln) (37 °C): -2.38 ± 0.31

GUUCAGCAAUAUUACGGUUC
self-splicing fitness (ln) (30 °C): -1.66 ± 0.14
self-splicing fitness (ln) (37 °C): 0.019 ± 0.18

UCAUAGCAAUAUUACGACAA
self-splicing fitness (ln) (30 °C): -2.43 ± 0.26
self-splicing fitness (ln) (37 °C): -1.06 ± 0.15

UCUAAGCAAUAUUACGACCA
self-splicing fitness (ln) (30 °C): -1.73 ± 0.24
self-splicing fitness (ln) (37 °C): -0.242 ± 0.19

GGCCAGCAAUAUUACGUCCU
self-splicing fitness (ln) (30 °C): -1.47 ± 0.21
self-splicing fitness (ln) (37 °C): -0.4 ± 0.17

UAUAAGCAAUAUUACGACUC
self-splicing fitness (ln) (30 °C): -1.51 ± 0.14
self-splicing fitness (ln) (37 °C): -0.355 ± 0.14

ACACAGCAAUAUUACGCUAU
self-splicing fitness (ln) (30 °C): -2.81 ± 0.082
self-splicing fitness (ln) (37 °C): -1.53 ± 0.079

AGGUAGCAAUAUUACGGUUA
self-splicing fitness (ln) (30 °C): -0.977 ± 0.016
self-splicing fitness (ln) (37 °C): -0.509 ± 0.033

CGCCAGCAAUAUUACGUUGG
self-splicing fitness (ln) (30 °C): -2.64 ± 0.14
self-splicing fitness (ln) (37 °C): -2.68 ± 0.24

GGACAGCAAUAUUACGAUCG
self-splicing fitness (ln) (30 °C): -0.492 ± 0.099
self-splicing fitness (ln) (37 °C): 0.519 ± 0.11

CUUAAGCAAUAUUACGACCU
self-splicing fitness (ln) (30 °C): -1.75 ± 0.39

CGCGAGCAAUAUUACGUCAU
self-splicing fitness (ln) (30 °C): -2.66 ± 0.23
self-splicing fitness (ln) (37 °C): -1.97 ± 0.33

AUGCAGCAAUAUUACGUACG
self-splicing fitness (ln) (30 °C): -2.15 ± 0.1
self-splicing fitness (ln) (37 °C): -0.573 ± 0.12
